Laboratory results published in patent US20100297606A1 (KAGOSHIMA UNIVERSITY, published 2010).
Positions of bridges follow the written chain, without caps; N, C: chain ends. No end group written: not given here. *: point of attachment. Biotin = O=C1N[C@H]2[C@H](CS[C@H]2CCCCC(=O)*)N1

B1: synthetic peptide IMGpep-1CS (peptide)
peptide: {Biotin-LC}-GSGYWRSEWGLSG
notes: Both Cys of IMGpep-1 replaced by Ser; linear control peptide; also called biotinylated IMGpep-1CS

How the values were obtained:
human transferrin = target: T1, human transferrin (human, UniProt P02787 20-698); test: ELISA on coated protein; biotinylated peptide premixed 4:1 with SA-AP; absorbance
T1 construct: Control protein; also called hTF; ThF
Procedure: (§1) The binding activity of the thus obtained biotinylated synthetic peptides to human IgG was assayed by an ELISA assay. […] Specifically, wells coated with human IgG (100 ng/50 μl/well) were blocked by the addition of 0.5% BSA. A biotinylated synthetic peptide and alkaline phosphatase-labeled streptavidin (SA-AP) were mixed in advance at a molar ratio of 4:1 and then the mixture was added to the well, followed by 1 hour of reaction. Para-nitrophenyl phosphate (Wako) was used for color development. Detection was carried out by measuring absorbance at 405 nm. As a positive control of human IgG, the Fc fragment of hIgG was used. As other control proteins, human IgA and IgE, mouse IgG, IgA, and IgE, hTF, fetal bovine serum (FBS), HSA, BSA, and gelatin were used.

human serum albumin = target: T2, human serum albumin (human, UniProt P02768 25-609); test: as above
T2 construct: Control protein; also called HSA
Procedure: as §1

bovine serum albumin = target: T3, bovine serum albumin (bovine, UniProt P02769 25-607); test: as above
T3 construct: Control protein; also called BSA
Procedure: as §1

[1] = target: T4, polyclonal human IgG antibody (serum-derived) (human); test: SPR (BIAcore2000, 25 C), biotinylated peptide on SA chip, human IgG as analyte (41 to 660 nM)
T4 construct: also called hIgG
Procedure: SPR analysis was carried out using BIAcore2000 (BIAcore) at 25° C. Necessary reagents and sensor chips were purchased from BIAcore and then used. […] The amount of each peptide to be immobilized was adjusted so that the RU (response unit) ranged from 1500 to 2000. […] Binding reaction between human IgG and the peptides was measured. Thereafter, washing with running buffer (HBS-T) was conducted and then dissociation reaction was measured. For washing/elution of bound analytes from the sensor chips, 0.2 M glycine-HCl buffer (pH 2.7) was used. Binding parameters were analyzed using BIA evaluation Version 3.2 software.

[2] = target: T5, anti-HER2 human antibody (Herceptin), acid-treated; test: SPR, peptides on sensor chips, antibody 250 nM; acid treatment pH 2.1, 20 C, 10 min; reference Fc-III peptide
T5 construct: Same antibody as m38 after acid treatment and neutralisation; also called acid-treated anti-HER2 human IgG; acid-denatured anti-HER2 human IgG
Procedure: (§2) For this SPR analysis, human IgG samples were prepared via acid treatment under various conditions as described below and then tested. […] Subsequently, 30 μl (or 20 μl for a sample to which glycine-HCl with pH 2.7 had been added) of 1 M Tris-HCl (pH 8.7) was added to each solution for neutralization.

[3] = target: T5, anti-HER2 human antibody (Herceptin), …; test: SPR, peptides on sensor chips, antibody 250 nM; acid treatment pH 2.1, 40 C, 10 min; reference Fc-III peptide
Procedure: as §2

[4] = target: T5, anti-HER2 human antibody (Herceptin), …; test: SPR, peptides on sensor chips, antibody 250 nM; acid treatment pH 2.7, 40 C, 10 min; reference Fc-III peptide
Procedure: as §2

[5] = target: T5, anti-HER2 human antibody (Herceptin), …; test: SPR, peptides on sensor chips, antibody 250 nM; acid treatment pH 2.7, 20 C, 10 min; reference Fc-III peptide
Procedure: as §2

[6] = target: T5, anti-HER2 human antibody (Herceptin), …; test: SPR, peptides on sensor chips, antibody 250 nM; acid treatment pH 2.7, 30 C, 10 min; reference Fc-III peptide
Procedure: as §2

T3 sequence (P02769 25-607 limits assumed): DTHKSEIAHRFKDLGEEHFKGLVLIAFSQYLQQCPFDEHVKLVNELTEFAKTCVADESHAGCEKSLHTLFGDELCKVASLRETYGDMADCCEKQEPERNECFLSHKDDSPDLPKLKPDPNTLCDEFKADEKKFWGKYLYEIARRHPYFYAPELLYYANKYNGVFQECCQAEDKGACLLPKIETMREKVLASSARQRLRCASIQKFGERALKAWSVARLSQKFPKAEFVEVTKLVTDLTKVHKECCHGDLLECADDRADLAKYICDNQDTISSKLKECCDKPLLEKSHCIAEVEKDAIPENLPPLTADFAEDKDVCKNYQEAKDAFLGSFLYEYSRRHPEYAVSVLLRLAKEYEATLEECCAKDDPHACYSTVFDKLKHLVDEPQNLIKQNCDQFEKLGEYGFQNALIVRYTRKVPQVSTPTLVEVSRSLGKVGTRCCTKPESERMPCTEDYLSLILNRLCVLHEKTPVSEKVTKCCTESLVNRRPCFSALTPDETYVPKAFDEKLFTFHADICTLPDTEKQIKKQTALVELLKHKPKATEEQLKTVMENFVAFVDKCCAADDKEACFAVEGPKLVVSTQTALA
T1 sequence (P02787 20-698 limits assumed): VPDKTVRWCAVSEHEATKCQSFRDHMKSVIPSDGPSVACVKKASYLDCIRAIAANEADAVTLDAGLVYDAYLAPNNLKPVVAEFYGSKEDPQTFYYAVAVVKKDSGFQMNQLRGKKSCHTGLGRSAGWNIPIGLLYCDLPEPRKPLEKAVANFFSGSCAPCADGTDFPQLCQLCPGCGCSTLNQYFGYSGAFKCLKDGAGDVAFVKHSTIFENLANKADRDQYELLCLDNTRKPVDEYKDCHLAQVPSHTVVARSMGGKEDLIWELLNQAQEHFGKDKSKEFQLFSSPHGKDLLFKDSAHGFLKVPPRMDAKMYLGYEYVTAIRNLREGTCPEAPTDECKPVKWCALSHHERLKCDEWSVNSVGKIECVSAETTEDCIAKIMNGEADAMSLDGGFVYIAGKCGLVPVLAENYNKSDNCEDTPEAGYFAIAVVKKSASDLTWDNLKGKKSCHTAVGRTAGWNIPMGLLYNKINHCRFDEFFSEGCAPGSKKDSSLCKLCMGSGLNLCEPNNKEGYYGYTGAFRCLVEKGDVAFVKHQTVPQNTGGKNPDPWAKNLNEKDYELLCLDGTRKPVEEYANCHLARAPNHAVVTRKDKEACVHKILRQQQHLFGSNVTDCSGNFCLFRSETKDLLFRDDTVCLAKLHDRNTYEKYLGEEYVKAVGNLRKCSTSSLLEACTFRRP

| Binder | binding result (human transferrin) | binding result (human serum albumin) | binding result (bovine serum albumin) | Kd [1] [nM] | koff [1] [s⁻¹] | kon [1] [M⁻¹ s⁻¹] | generation rate of acid-denatured IgG (ratio a/b of the SPR response on the IMGpep-4K6R chip to that on the Fc-III chip) [2] [%] | generation rate of acid-denatured IgG (ratio a/b of the SPR response on the IMGpep-4K6R chip to that on the Fc-III chip) [3] [%] | generation rate of acid-denatured IgG (ratio a/b of the SPR response on the IMGpep-4K6R chip to that on the Fc-III chip) [4] [%] | generation rate of acid-denatured IgG (ratio a/b of the SPR response on the IMGpep-4K6R chip to that on the Fc-III chip) [5] [%] | generation rate of acid-denatured IgG (ratio a/b of the SPR response on the IMGpep-4K6R chip to that on the Fc-III chip) [6] [%] |
| --- | --- | --- | --- | --- | --- | --- | --- | --- | --- | --- | --- |
| B1 | no binding | no binding | no binding |  |  |  |  |  |  |  |  |
| {Biotin-LC}-GCTGYWPKAWGLCG (disulfide 2-13 (inferred), also called biotinylated IMGpep-4) [synthetic peptide IMGpep-4] | no binding | no binding | no binding | 28 | 0.00041 | 14000 |  |  |  |  |  |
| GCTGYWPRAWGLCG (disulfide 2-13 (inferred); not fully specified (N-terminus), also called biotinylated IMGpep-4K6R) [synthetic peptide IMGpep-4K6R] | no binding | no binding | no binding | 24 |  |  | 7.8 | ~40 | 40 | ~5 | 9.7 |
| {Biotin-LC}-GCGYWRSEWGLCG (disulfide 2-12 (inferred), also called biotinylated IMGpep-1) [synthetic peptide IMGpep-1] | no binding |  | no binding | 17 | 0.00034 | 20000 |  |  |  |  |  |
| {Biotin-LC}-GCGYWRSQWGLCG (disulfide 2-12 (inferred), also called biotinylated IMGpep-1E6Q) [synthetic peptide IMGpep-1E6Q] | no binding | no binding | no binding | 21 | 0.00031 | 15000 |  |  |  |  |  |
